# According to article PMC5372524, “Structural Basis of Native CXCL7 Monomer Binding to CXCR2 Receptor N-Domain and Glycosaminoglycan Heparin” (International Journal of Molecular Sciences, 2017):
# Values joined by “and” are separate entries in the source; they are usually repeats but may differ in a detail not shown here. Identical values can stand only once.
# B1: CXCL7 (NAP-2, neutrophil-activating peptide 2), wild type (natural protein, UniProt P02775 59-128, looked up)
# chain: AELRCMCIKTTSGIHPKNIQSLEVIGKGTHCNQVEVIATLKDGRKICLDPDAPRIKKIVQKKLAGDESAD
# notes: Chemokine CXCL7, also known as NAP-2; 15N-labelled for the HSQC titrations; Exists as monomer, dimer and tetramer depending on pH and concentration; also called WT CXCL7; native CXCL7 monomer; source: Escherichia coli (LB or 15N/13C enriched minimal medium), purified (nickel column, reverse phase HPLC), lyophilized
# Target: the molecule itself
# Assay: relative peak intensities in 2D HSQC NMR spectra; monomer/dimer/tetramer levels of CXCL7 as a function of buffer, temperature, pH and concentration (Table S1)
protein,measurement,value
B1,stoichiometry N,4 and 2
